From the nanobody polyreactivity screen of Harvey et al. (2022)

Test: yeast display, Sf9 membrane polyspecificity reagent, FACS + sequencing; frameworks hold sequencing errors
How it was run: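 Genes from sorted yeast were amplified by colony PCR, read by MiSeq 2 × 250 sequencing and filtered on CDR length. These cells carried a synthetic nanobody library in Saccharomyces cerevisiae BJ5465 and were sorted by FACS into low and high (top ~1%) gates on anti-HA and streptavidin fluorescence. Polyreactivity is labelled according to the gate of origin.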

Row | Sequence | polyreactivity (PSR sort gate)
1 | QVQLEESGGGLVQAGGSLRLSGAASGYTFGHYGMGWYRQAPGKERELVAAINSGGSTNDADSVKGRFTISRDNAKNTVYVQMNSLKPEDTAVYYCAADHSGGSRYDYWGQGTLVTVSS | low polyreactivity
2 | QDQHVESGGGLVQAGGSLRLSCAASGFIFSQYAMGWYRQAPGKERELVAAISSGSTYADSVKGRFTISRDNAKNTVYLQMNSLKPEDTAVYYCAVDYHQAWPSADYWFEYDYWGQGTQVTVSS | low polyreactivity
3 | QVQLVESGGGLVQAGGSLRLSCAASGFIFTGNVMGWYRQAPGKERELVAAIRWSGGRTYYADSVKGRFTISRDNAKNTVYLQMNSLKPEDTAVYYCNALGRVQGYKPGGLDYWGQGTQVTVSS | high polyreactivity
4 | QVQLVDSGGVLVQAGGSLRLSCAASGFTFRDYAMGWYRQAPGKERELVAAISRSGDSTYYADSVKGRFTISRDNAKNTVYLQMNSLKPEDTAVYYYAAKRRYTTYDYWGQGTQVTVSS | high polyreactivity
5 | QVQLVESGGGLVQAGGSLRLSCAASGSIFGYYAMGWYRQAPGKERELVAAIDSGGSTYYADSVKGRFTISRDNAKNTVYLQMNSLKPEDTAVYYCATDYSGLRYDYWGQGTQVTVSS | low polyreactivity
6 | HVQLVESAGGLVQAGGSLRVSCAASGRTFEDNAMGWSRPAPGKERELVAAISSAGSTNYADSVKGRFTISRDNAKNTVYLQMTSLKPEDTAVYYCNATVYWPYDWRTSDYWGHGTQVTVSS | low polyreactivity
7 | QVQLVESGGGLVQAGCSLRLSCAASGRIFDTYAKGWYRQAPGKERELVATITAGTSTNYADSVKGRFTISRDNAKNTVYLKMNCLKPEDTAVYYCAASKYGSPPYRSYVYWGQGTQVSVSS | high polyreactivity
8 | QVQLVESGGGLVQAGGSLRLSCAASGSIFRFNTMGWYRQAPGKERELVAAITSGDGTYYADSVKGRFTISRDNAKNTVYLQMNSLKPEDTAVYYCAATRTYQLYRWAPRYYYWGQGTQVTVSS | high polyreactivity
9 | QVQLVESGGGLVQAVGRLRLSCAASGLTFQYYAMGWYRQAPGKERELDAAISRSGGRSYYADSVKGRFTISRDNAKYTVYLQMISLKPEDSAVSYCNAVRRFASPTRHYYWGQGTQVTVSS | high polyreactivity
10 | QVQLVESGGGLVQAGGSLRLSCAASGRTFPIYAMGWYRQAPGKERELVAAITRGGRTNYADSVKGRFTISRDNAKNTVYLQMNSLKTEDTAVYYCAARSYGTYLYAEYDYWGQGTQVTVSS | high polyreactivity
11 | QVQLVESGGGLVQAGGSLRLSCAASGLIFSGYAMGWYRQAPGKDRELVAALTRRGSRTYYADSVKGRFTISRDNAKNTVYLQMNSLKPEDTAVYYCAADRFQGRDDYWGQGTQVTVSS | high polyreactivity
12 | QVQLVESGGGLVQAGGSLRLSSAASGSTFYKYAMGWNRQTPGKERELVAPITGNSGSTYYADSVKGRFTISRDNAKNTVYLQMNSLKPEDTAVYYCAAARPRVWAFNYWGQGTQVTVSS | low polyreactivity
13 | QVQLVESGVGLVQAGGSLRLSCAAYGSIFDGYAMGWYRPAPGKEREFVATITVSGGRSYYADSVKGSFTISRDNANNTVYLEMNSLKPEDTAVYYGNVDVFYYPHRYDYWGQGTQVTVSS | high polyreactivity
14 | QVQLVESGGGLVQAGGSLRISCAASRSTFGIYAMGWYRQAPGKERELVAAISFRCGRTYYADSVKGRFTISRDNAKNTVYLQMISLKPEDNAVYYCAATWYWGNAYWGQGTQVTVSS | low polyreactivity
15 | QVQLVESGGGLVQAGGSLRLSCAASGSIFKYYAMGWYRQAPGKERELVAAISYSGGRTYYADSVKGRFTISRDNAKNTVYLQMNSLKPEDTAVYYCNAELYPWPGVVRYNYWGQGTQVTVSS | high polyreactivity
16 | QVQLVESGGGLVQAGGSLRLSCAASGGTFYTYAMGWYRQAPGKERELVAAISRSGGRTYYADSVKGRFTISRDNAKNTVYLQMNSLKPEDTAVYYCAAVRIARAVQDYDYWGQGTQVTVSS | high polyreactivity

Row | Sequence | polyreactivity (PSR sort gate)
17 | QVQLVESGGGLVQAGGSLRLSCAASGSTFQTYAMGWSRQAPGKERELVAAITWRGGSTYYADSVKGRFTISRDNAKNTVYLQMNSLKPDDTAVYYCAAKWNGSHDHRAAYESWGQGTQVTVSS | low polyreactivity
18 | QVQLVESGGGLVQAGGSLRLSCAASGSTVTSNAMGWSRQAPGKERELVAAISSGGSTYYADSVKGRFTISRDNAKNTVYLQMNSLKPEDTAVYYCAAEWHYIYAYDYWGQGTQVTVSS | low polyreactivity
19 | QVQLVESGGGLVQAGGSLRLSCAASGFIYGYYAKGWYRQAPGKARELVAAISYSGGSTYYADSVKGRFTISRDNAKNTVYLQKNSLKPEDSAVYYCAAVYLGYIYSRYDYWGQGTQVTVSS | low polyreactivity
20 | QVQLVESVGGLVQAGGSLRLSCAASGFIFSPYAMGWYRQAPGKERELVAAISWNGGRTYYADSVKGRFTISRDYAKNTVYLQMNSLKPEDTAVYYCAASFRNPYSHGYWGQGTQVTVSS | high polyreactivity
21 | PVQLVESGGGLVQAGGSLRLICAASGRIFLPYAMGWYRQAPGKERELVASITRRGGTTYYADSVKGRFTLSRDYAKNTDYLQLNSLKTEDTSVYYCAADSGYRLQSYGYWGQGTQVTVSS | high polyreactivity
22 | QVQLVESGGGLVQAGGSLRLSCAASGNTFRRNVMGWYRQAPGKERELVAAINRGGSTTYADSVKGRFTISRDNAKNTVYLQMNSLKAEDTAVYYCNARTLFKWRHGHYYAYDYWGQGTQVTVSS | high polyreactivity
23 | QVQLVDSGGGLVQAGGSLRLTCAASGSTIYKNTMGWDRQGPGKERELVAAITRGGSTYYADSVKGRVTISRDNAKNTVYLQMNSLKPEDTAVYYCNTLTRHRYGYDYWGQGTQVTVSS | high polyreactivity
24 | QVQLVESGGGLVQAGGSLRLSCAASGRTFTPNAMGWYRQAPGKERELVAAITSTGGRTYYADSVKGRFTISRDNAKNTVYLQMNSLKPEDTAVYYCAVSYRYLRKYGYWGQGTQVTVSS | high polyreactivity
25 | QVQLVESGGGLVQAGGRLRLICAASGSTLYSYAMGWYRQAPGKEREFVAAISRRGGSTYYADSVKGRFTISRDNAKNTVYLQMNSLKPEDTAVYYCAARDSSYHWYGYWGQGTQVTVSS | high polyreactivity
26 | QVQLVESGGGLVQAGGSLRLSCAASGRTFPYYVMGWNRQAPRKERELVATISSSGRTYYADSVKGRFTISRDNAKNTVYLQMNSLNPEDTSVYYCAARFRWNQNYHFYYWGQGTQVTVSS | high polyreactivity
27 | QVQLVESGGGLVQAGGSLRLSCAASGSIFNANAMGWYRQAPGKEWELVARITRGGRTNYADSVKGRFTISRDNAKNTVYLQMNSLKPEDTAVYYCAAVYYVGFPHKYDYWGQGTQVNVSS | low polyreactivity
28 | QVQLVESGGGLVQAGGSLRLSSAASGRIFGYNAMGWYRQAPGKERELVAVITYRGTSTYYADSVKGRFTISRDNAKNTVYLQMNSLKPEDTAVYYCAAVNGGYWRYYYWGQGTQVTVSS | high polyreactivity
29 | QVQLVESGGGLVQAGGSLRLSCAASGRPSSLMNMGWYRQAPGKERELVAAISTSGGSTYYADSVKGRFTISRDNAKNTVYLQMNSLKPEDTAVYYCAATIGRRSYNQMYYWGQGTQVTVSS | high polyreactivity
30 | QVQLVESGGGLVQAGGSLRLSCAASGRIFFIYVMGWYRQAPGKERELVAGITRGGSTNYADSVKGRFTISRDNAKNTVYLQMNSLKPEDTAVYYCAAAVLSYRHAHAGYYYGKGDYWGQGTQVTVSS | high polyreactivity
31 | QVQLVESGGGLVQAGGSLRLSCAASGRTITRNALGWYRQAPGKERELVASINRGGSTNYADSVKGRFTISRDNAKNTDYLQMNSLNPEDTAVYYCYYHVYEQYFWVEYDYWGQGTQVTVSS | high polyreactivity
32 | QVQLVESGGGLVQAGGSLRLSCAASGSIFVWYAMGRYRQAPGQERELVARITSGGRTNYADSVKGRFTISRDNAKNTVYLQMISLKPEDTAVYYCAAGRVSWSPDYYWGQGTQGTVSS | high polyreactivity
